Molecular target: T1, mouse ADAMTS7 (Mus musculus, UniProt Q68SA9, E373Q)
T1 construct: Full-length mouse Adamts7 1-1857 (Uniprot Q68SA9, WT or E373Q catalytic mutant); expressed in transfected cells; host or cells: Human Coronary Artery Smooth Muscle Cells (HCA-SMC, Lonza), adenovirus 50 MOI
T1 sequence (Q68SA9 221-1657 E373Q): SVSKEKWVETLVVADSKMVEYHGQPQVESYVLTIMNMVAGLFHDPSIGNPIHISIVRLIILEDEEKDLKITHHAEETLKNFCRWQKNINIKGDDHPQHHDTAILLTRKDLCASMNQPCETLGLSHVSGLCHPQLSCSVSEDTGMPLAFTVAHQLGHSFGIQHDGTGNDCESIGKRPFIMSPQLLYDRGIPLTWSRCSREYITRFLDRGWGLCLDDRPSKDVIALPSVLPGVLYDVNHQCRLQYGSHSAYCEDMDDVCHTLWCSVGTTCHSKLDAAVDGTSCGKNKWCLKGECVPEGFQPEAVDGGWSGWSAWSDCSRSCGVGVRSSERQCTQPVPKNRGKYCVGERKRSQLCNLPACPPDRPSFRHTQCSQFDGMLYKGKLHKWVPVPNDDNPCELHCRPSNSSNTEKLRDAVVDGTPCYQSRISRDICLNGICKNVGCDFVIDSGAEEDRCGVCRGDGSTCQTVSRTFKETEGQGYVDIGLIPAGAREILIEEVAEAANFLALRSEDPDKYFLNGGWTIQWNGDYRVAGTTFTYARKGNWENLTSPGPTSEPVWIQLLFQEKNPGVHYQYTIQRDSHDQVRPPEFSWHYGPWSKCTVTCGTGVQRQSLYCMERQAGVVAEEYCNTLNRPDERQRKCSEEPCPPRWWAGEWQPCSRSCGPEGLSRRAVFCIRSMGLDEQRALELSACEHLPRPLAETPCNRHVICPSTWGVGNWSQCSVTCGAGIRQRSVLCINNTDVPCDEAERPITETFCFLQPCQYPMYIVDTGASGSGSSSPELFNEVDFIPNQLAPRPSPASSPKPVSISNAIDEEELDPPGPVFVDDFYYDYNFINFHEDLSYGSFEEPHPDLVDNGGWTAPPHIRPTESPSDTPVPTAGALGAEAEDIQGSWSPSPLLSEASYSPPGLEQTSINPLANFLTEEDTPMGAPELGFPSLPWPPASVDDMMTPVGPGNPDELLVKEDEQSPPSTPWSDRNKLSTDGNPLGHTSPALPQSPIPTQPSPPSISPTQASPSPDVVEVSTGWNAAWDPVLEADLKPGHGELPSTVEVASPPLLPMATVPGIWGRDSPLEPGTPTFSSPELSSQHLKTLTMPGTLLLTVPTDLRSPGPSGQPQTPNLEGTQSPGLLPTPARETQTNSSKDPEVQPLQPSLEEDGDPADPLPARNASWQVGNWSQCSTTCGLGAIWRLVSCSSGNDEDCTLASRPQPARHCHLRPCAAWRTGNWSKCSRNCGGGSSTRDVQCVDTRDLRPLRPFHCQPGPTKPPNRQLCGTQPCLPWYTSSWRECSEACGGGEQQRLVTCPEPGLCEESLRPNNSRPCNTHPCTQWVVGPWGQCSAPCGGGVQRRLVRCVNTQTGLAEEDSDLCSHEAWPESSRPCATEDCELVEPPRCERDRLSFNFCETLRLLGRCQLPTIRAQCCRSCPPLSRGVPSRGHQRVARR
Experiment: TMT10 TAILS N-terminomics, HUVEC experiment (process replicates, trypsin/AspN digest)
Type: cell-based, human
Settings: HUVEC TAILS HC; log fold change of N-terminal peptide, Ad-mADAMTS7 EQ over Luc
Summary of the method: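 Full-length mouse ADAMTS7 (WT or E373Q mutant, C-terminal 3xFLAG) or luciferase was transduced via adenovirus, 50 MOI, into HCA-SMC (SMC1, SMC2) or HUVEC. SMC1: pooled media, technical triplicates 400 ug; SMC2: process triplicates 300 ug; HUVEC: process triplicates 200 ug, bFGF2 10 ng/ml.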

“COL18A1_1505 (LQPPVVQLHDSNPYPR; listed as Homo sapiens)” showed a logFC.mEQ.over.Luc of −0.84.
Work on “LTBP2_79 (VAGLQPVER; listed as Homo sapiens)” yielded a logFC.mEQ.over.Luc of −0.38.
For “LTBP2_250 (SAAGEGTLAR; listed as Homo sapiens)”, the logFC.mEQ.over.Luc was 0.12.
With “LTBP2_502 (LVENSVETRPPPWLPASPGHSLW; listed as Homo sapiens)” the logFC.mEQ.over.Luc was −0.22.
Substance “LTBP3_208 (FLVPLGPGQISA; listed as Homo sapiens)” has a logFC.mEQ.over.Luc of −0.60.
“MAP4_815 (AVASTGPSSR; listed as Homo sapiens)” was tested, and the logFC.mEQ.over.Luc was 0.36.
“MAP4_816 (VASTGPSSR; listed as Homo sapiens)” showed a logFC.mEQ.over.Luc of 0.08.
Substance “NID1_360 (FHQQHPQVI; listed as Homo sapiens)” has a logFC.mEQ.over.Luc of −0.30.
“NID2_291 (HSSVPLGR; listed as Homo sapiens)” was tested, and the logFC.mEQ.over.Luc was −0.10.
Work on “NUCB1_317 (FLASTQR; listed as Homo sapiens)” yielded a logFC.mEQ.over.Luc of 0.06.
Work on “NUCB1_389 (LQQAVLHMEQR; listed as Homo sapiens)” yielded a logFC.mEQ.over.Luc of −0.22.
“SERBP1_56 (QAAAQTNSNAAGKQLR; listed as Homo sapiens)” showed a logFC.mEQ.over.Luc of −0.20.
“SPOCK1_27 (LAGGAGPNHGNFL; listed as Homo sapiens)” was tested, and the logFC.mEQ.over.Luc was −0.17.
Substance “SRGN_59 (LLPGESNKIPR; listed as Homo sapiens)” has a logFC.mEQ.over.Luc of −0.13.
“THBS2_290 (LSENLKR; listed as Homo sapiens)” was tested, and the logFC.mEQ.over.Luc was 0.64.
